According to US20210115143A1 (R PHARM OVERSEAS, published 2021):
Several values for one entry are separate records, joined by “and”; a condition that tells them apart may be missing. Equal values may be shown once. Blank lines part the entries; values can stand above or below the binder they belong to.

How the values were obtained:
[1] = molecular target: human PD-L1 on primary human cells in the dendritic cell / CD4+ T cell mixed lymphocyte reaction (human, UniProt Q9NZQ7 19-290); assay: cell-based or functional assay
Chain of human PD-L1 on primary human cells in the dendritic cell / CD4+ T cell mixed lymphocyte reaction (Q9NZQ7 19-290): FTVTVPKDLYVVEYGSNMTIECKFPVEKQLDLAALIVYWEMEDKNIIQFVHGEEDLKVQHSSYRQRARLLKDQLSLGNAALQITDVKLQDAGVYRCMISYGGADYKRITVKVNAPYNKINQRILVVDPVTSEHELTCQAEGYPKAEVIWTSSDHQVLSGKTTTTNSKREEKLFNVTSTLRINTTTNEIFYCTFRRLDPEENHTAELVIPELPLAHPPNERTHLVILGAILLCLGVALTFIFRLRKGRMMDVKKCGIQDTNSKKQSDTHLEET

[2] = molecular target: hPD-L1 as used in the binding and blocking tests of Example 4 (human, UniProt Q9NZQ7 19-238, limits assumed); assay: competition with PD-1 for PD-L1, scFv-Fc (FIG. 3)
Chain of hPD-L1 as used in the binding and blocking tests of Example 4 (Q9NZQ7 19-238 limits assumed): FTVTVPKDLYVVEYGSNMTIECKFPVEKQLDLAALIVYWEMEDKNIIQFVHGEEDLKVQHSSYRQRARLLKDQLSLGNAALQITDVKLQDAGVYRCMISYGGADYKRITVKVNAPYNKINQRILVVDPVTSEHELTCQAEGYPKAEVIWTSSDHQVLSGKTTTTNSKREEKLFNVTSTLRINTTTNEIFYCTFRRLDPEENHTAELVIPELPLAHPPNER

B1: B60-55 mAb (anti-hPD-L1, human IgG1, kappa) (antibody, V domains shown)
VH: QVQLVQSGAEVKKPASSVKVSCTASGGSFSTYAISWVRQAPGQGLEWMGGIIPIFGTTKYAQRFQGRVTITADESTTTAYMELSSLISDDTALYYCTTSRGFNYGWFDYWGQGTLVTVSS
VL: EIVMTQSPATLSLSPGERATLSCRASQSVGIHLAWYQQKLGQAPRLLIYGASSRATGIPDRFSGSGSGTDFTLTISRLEPEDFAVYYCQQYGSLPRTFGQGTKVEIK
EC50 of IFN-γ secretion by CD4+ T cells in a dendritic cell-T cell mixed lymphocyte reaction [1]: 0.189 µg/ml and 1.2 nM

B3: B60-55 anti-hPD-L1 scFv fused to IgG1-Fc (affinity matured) (Fc fusion)
scFv: QVQLVQSGAEVKKPASSVKVSCTASGGSFSTYAISWVRQAPGQGLEWMGGIIPIFGTTKYAQRFQGRVTITADESTTTAYMELSSLISDDTALYYCTTSRGFNYGWFDYWGQGTLVTVSSGGGGSGGGGSGGGGSEIVMTQSPATLSLSPGERATLSCRASQSVGIHLAWYQQKLGQAPRLLIYGASSRATGIPDRFSGSGSGTDFTLTISRLEPEDFAVYYCQQYGSLPRTFGQGTKVEIK
notes: not shown: human immunoglobulin gamma1 (IgG1) constant region, UniProt P01857, residues 104-330 (IgG1-Fc)
IC50 [2]: 1.14 mg/L

Further lines, results first:

IC50 [2]: 0.837 mg/L
B2: BII61-62 anti-hPD-L1 scFv fused to IgG1-Fc (affinity matured) (Fc fusion)
scFv: QVQLQQSGPGLVKPSQTLSLTCAISGDSVSSNSASWNWIRQSPSRGLEWLGRTYYRSKWYDDYAVSVKGRISINPDTSKNQFSLQLNSVTPEDTAVYYCARSQGRYFVNYGMDVWGQGTTVTVSSGGGGSGGGGSGGGGSDIRLTQSPSSLSASVGDRITITCRASQSISSYLNWYQQKPGKAPKLLVYGASSLQSGVPSRFSGSGSGTDFTLTISSLQPEDVATYYCQQSYFTPRGITFGPGTKVDIK
notes: as for B3

EC50 of IFN-γ secretion by CD4+ T cells in a dendritic cell-T cell mixed lymphocyte reaction [1]: 0.078 µg/ml and 0.5 nM
B4: BII61-62 mAb (anti-hPD-L1, human IgG1, kappa) (antibody, V domains shown)
VH: QVQLQQSGPGLVKPSQTLSLTCAISGDSVSSNSASWNWIRQSPSRGLEWLGRTYYRSKWYDDYAVSVKGRISINPDTSKNQFSLQLNSVTPEDTAVYYCARSQGRYFVNYGMDVWGQGTTVTVSS
VL: DIRLTQSPSSLSASVGDRITITCRASQSISSYLNWYQQKPGKAPKLLVYGASSLQSGVPSRFSGSGSGTDFTLTISSLQPEDVATYYCQQSYFTPRGITFGPGTKVDIK
